# B1: human ISCU, Q9H1K1 35-167 (natural protein)
# chain: YHKKVVDHYENPRNVGSLDKTSKNVGTGLVGAPACGDVMKLQIQVDEKGKIVDARFKTFGCGSAIASSSLATEWVKGKTVEEALTIKNTDIAKELCLPPVKLHCSMLAEDAIKAALADYKLKQEPKKGEAEKK
# B2: human holo-NFU1 (natural protein, UniProt Q9UMS0 10-254, looked up)
# chain: GAAAVAAGLRRRFCHMLKNPYTIKKQPLHQFVQRPLFPLPAAFYHPVRYMFIQTQDTPNPNSLKFIPGKPVLETRTMDFPTPAAAFRSPLARQLFRIEGVKSVFFGPDFITVTKENEELDWNLLKPDIYATIMDFFASGLPLVTEETPSGEAGSEEDDEVVAMIKELLDTRIRPTVQEDGGDVIYKGFEDGIVQLKLQGSCTSCPSSIITLKNGIQNMLQFYIPEVEGVEQVMDDESDEKEANSP
# modifications: [4Fe-4S] cluster bound by C195 and C198; two NFU1 chains supply the four cysteine ligands of one cluster
# notes: NFU1, human, with both the N-terminal domain (NTD) and the C-terminal domain (CTD); Same chain as m2 with the [4Fe-4S] cluster; trimer of cluster-linked dimers (hexamer, 160 kDa); also called NFU1[4Fe-4S]; hexameric holo-NFU1; source: prepared as described earlier (Cai et al., 2016); in the anaerobic SEC formed by adding ISCU[4Fe-4S] to [U-15N]-apo-NFU1
# Experiments:
# human apo-NFU1 (human) [1] = target: human apo-NFU1 (human) (UniProt Q9UMS0); assay: SAXS; apo-NFU1:ISCU complex isolated by SEC, dialysed against HNT buffer, 2-8 mg/mL, 298 K; molecular mass by the Vc approach
# human apo-NFU1 (human) [2] = target: human apo-NFU1 (human) (UniProt Q9UMS0); assay: ITC; Nano ITC, 25 °C, HNT buffer; syringe 0.8 mM ISCU, cell (169 μL) 0.03 mM NFU1; 20 injections of 2.5 μL; fitted to a 1:1 binding mode
# [3] = target: T1, human ISCU (human), Q9H1K1; assay: SEC; anaerobic; mixture of [U-15N]-apo-NFU1 and ISCU[4Fe-4S] incubated 30 min, HiLoad Superdex 200 PG, HNT buffer, 1 mL/min; fractions analysed by SDS-PAGE; conditions: remark: other sources report otherwise
# T1 chain: B1 chain
# [4] = target: the molecule itself; assay: as above
molecule,measurement,setting,value
human ISCU (from UniProt Q9H1K1 35-167) (natural protein),stoichiometry N,human apo-NFU1 (human) [1],1
same,Kd,human apo-NFU1 (human) [2],1100 nM
B1,stoichiometry N,[3],2
B2,stoichiometry N,[4],6

# Source: PMC7261492, “ISCU interacts with NFU1, and ISCU[4Fe-4S] transfers its Fe-S cluster to NFU1 leading to the production of holo-NFU1” (Journal of structural biology, 2020)
